In patent US20200024322A1 (Eli Lilly, published 2020):
Numbered stars: 1 amine (or outer) side, 2 acyl side, 3 side chain; on linkers, the order of the positions; unused ones are H or OH. Square brackets hold non-standard residues; d marks the D form. Side chains are listed from the residue outwards. Ends that are not written are not given here. * marks the point of attachment. C20 diacid = O=C(O)CCCCCCCCCCCCCCCCCCC(=O)*; γGlu = O=C(O)[C@H](CCC(=O)[*:2])N[*:1]; AEEA = NCCOCCOCC(=O)O; Aib = CC(C)(N)C(=O)O

T1: human GIP receptor (human, UniProt P48546 22-466)
T1 construct: whole, on cells; Used as crude membranes of stably transfected CHO cells; also called hGIPR
T1 sequence (looked up): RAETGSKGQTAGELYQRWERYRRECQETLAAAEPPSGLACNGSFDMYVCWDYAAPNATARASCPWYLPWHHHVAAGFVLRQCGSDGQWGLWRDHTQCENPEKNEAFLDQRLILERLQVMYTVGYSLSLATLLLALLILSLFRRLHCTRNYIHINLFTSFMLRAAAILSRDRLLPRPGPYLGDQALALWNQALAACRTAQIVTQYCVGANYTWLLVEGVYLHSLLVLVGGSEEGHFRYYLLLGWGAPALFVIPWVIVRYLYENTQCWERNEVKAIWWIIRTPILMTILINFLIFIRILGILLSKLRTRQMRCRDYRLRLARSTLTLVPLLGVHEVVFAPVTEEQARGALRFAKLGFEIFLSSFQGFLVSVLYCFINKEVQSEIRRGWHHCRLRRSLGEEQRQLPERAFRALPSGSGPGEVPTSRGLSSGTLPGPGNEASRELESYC


Legend:
[1] = molecular target: T1, human GIP receptor; experiment: SPA, [125I]-GIP displacement, hGIPR membranes
[2] = molecular target: T2, human GLP-1 receptor (human, UniProt P43220 24-463); experiment: SPA, [125I]-GLP-1 displacement, hGLP-1R membranes
T2 construct: whole, on cells; Used as crude membranes of stably transfected HEK293 cells; also called hGLP1R; hGLP-1R

[3] = molecular target: T3, human glucagon receptor (human, UniProt P47871 26-477); experiment: SPA, [125I]-Gcg displacement, hGcgR membranes
T3 construct: whole, on cells; Used as crude membranes of stably transfected HEK293 cells; also called hGcgR; hGLcgR
T3 sequence (P47871 26-477): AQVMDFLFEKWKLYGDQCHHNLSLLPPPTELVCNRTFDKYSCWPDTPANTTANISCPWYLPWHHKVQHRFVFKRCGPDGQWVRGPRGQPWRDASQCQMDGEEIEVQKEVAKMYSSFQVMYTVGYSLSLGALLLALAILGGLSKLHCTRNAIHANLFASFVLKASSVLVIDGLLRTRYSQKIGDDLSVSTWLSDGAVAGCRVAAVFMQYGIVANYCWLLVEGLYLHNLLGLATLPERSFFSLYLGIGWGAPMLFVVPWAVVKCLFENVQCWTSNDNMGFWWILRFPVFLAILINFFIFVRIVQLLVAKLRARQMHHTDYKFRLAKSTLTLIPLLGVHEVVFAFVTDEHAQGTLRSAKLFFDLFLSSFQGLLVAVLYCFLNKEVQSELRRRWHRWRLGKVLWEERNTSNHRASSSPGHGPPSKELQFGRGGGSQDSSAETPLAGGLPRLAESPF

Binder | Ki [1] | Ki [2] | Ki [3]
Y[Aib]EGTFTSDYK([AEEA-AEEA-γGlu-C20 diacid])ILLDKIAQ[Aib]AFIEYLIEGGPSSGAPPPS-NH2 (N-terminus assumed; SMILES CC[C@H](C)[C@H](NC(=O)[C@H](CCCCN)NC(=O)[C@H](CC(=O)O)NC(=O)[C@H](CC(C)C)NC(=O)[C@H](CC(C)C)NC(=O)[C@@H](NC(=O)[C@H](CCCCNC(=O)COCCOCCNC(=O)COCCOCCNC(=O)CC[C@H](NC(=O)CCCCCCCCCCCCCCCCCCC(=O)O)C(=O)O)NC(=O)[C@H](Cc1ccc(O)cc1)NC(=O)[C@H](CC(=O)O)NC(=O)[C@H](CO)NC(=O)[C@@H](NC(=O)[C@H](Cc1ccccc1)NC(=O)[C@@H](NC(=O)CNC(=O)[C@H](CCC(=O)O)NC(=O)C(C)(C)NC(=O)[C@@H](N)Cc1ccc(O)cc1)[C@@H](C)O)[C@@H](C)O)[C@@H](C)CC)C(=O)N[C@@H](C)C(=O)N[C@@H](CCC(N)=O)C(=O)NC(C)(C)C(=O)N[C@@H](C)C(=O)N[C@@H](Cc1ccccc1)C(=O)N[C@H](C(=O)N[C@@H](CCC(=O)O)C(=O)N[C@@H](Cc1ccc(O)cc1)C(=O)N[C@@H](CC(C)C)C(=O)N[C@H](C(=O)N[C@@H](CCC(=O)O)C(=O)NCC(=O)NCC(=O)N1CCC[C@H]1C(=O)N[C@@H](CO)C(=O)N[C@@H](CO)C(=O)NCC(=O)N[C@@H](C)C(=O)N1CCC[C@H]1C(=O)N1CCC[C@H]1C(=O)N1CCC[C@H]1C(=O)N[C@@H](CO)C(N)=O)[C@@H](C)CC)[C@@H](C)CC) [Example 24] | 0.232 nM | 5.04 nM | 49.8 nM
Y[Aib]EGTFTSDYSILLDKIK([AEEA-AEEA-γGlu-C20 diacid])Q[Aib]AFIEYLIEGGPSSGAPPPS-NH2 (N-terminus assumed; SMILES CC[C@H](C)[C@H](NC(=O)[C@H](CC(C)C)NC(=O)[C@H](Cc1ccc(O)cc1)NC(=O)[C@H](CCC(=O)O)NC(=O)[C@@H](NC(=O)[C@H](Cc1ccccc1)NC(=O)[C@H](C)NC(=O)C(C)(C)NC(=O)[C@H](CCC(N)=O)NC(=O)[C@H](CCCCNC(=O)COCCOCCNC(=O)COCCOCCNC(=O)CC[C@H](NC(=O)CCCCCCCCCCCCCCCCCCC(=O)O)C(=O)O)NC(=O)[C@@H](NC(=O)[C@H](CCCCN)NC(=O)[C@H](CC(=O)O)NC(=O)[C@H](CC(C)C)NC(=O)[C@H](CC(C)C)NC(=O)[C@@H](NC(=O)[C@H](CO)NC(=O)[C@H](Cc1ccc(O)cc1)NC(=O)[C@H](CC(=O)O)NC(=O)[C@H](CO)NC(=O)[C@@H](NC(=O)[C@H](Cc1ccccc1)NC(=O)[C@@H](NC(=O)CNC(=O)[C@H](CCC(=O)O)NC(=O)C(C)(C)NC(=O)[C@@H](N)Cc1ccc(O)cc1)[C@@H](C)O)[C@@H](C)O)[C@@H](C)CC)[C@@H](C)CC)[C@@H](C)CC)C(=O)N[C@@H](CCC(=O)O)C(=O)NCC(=O)NCC(=O)N1CCC[C@H]1C(=O)N[C@@H](CO)C(=O)N[C@@H](CO)C(=O)NCC(=O)N[C@@H](C)C(=O)N1CCC[C@H]1C(=O)N1CCC[C@H]1C(=O)N1CCC[C@H]1C(=O)N[C@@H](CO)C(N)=O) [Example 30] | 0.151 nM | 6.2 nM | 123 nM
Y[Aib]EGTFTSDYSILLDKIAQ[Aib]K([AEEA-AEEA-γGlu-C20 diacid])FIEYLIEGGPSSGAPPPS-NH2 (N-terminus assumed; SMILES CC[C@H](C)[C@H](NC(=O)[C@H](CCCCN)NC(=O)[C@H](CC(=O)O)NC(=O)[C@H](CC(C)C)NC(=O)[C@H](CC(C)C)NC(=O)[C@@H](NC(=O)[C@H](CO)NC(=O)[C@H](Cc1ccc(O)cc1)NC(=O)[C@H](CC(=O)O)NC(=O)[C@H](CO)NC(=O)[C@@H](NC(=O)[C@H](Cc1ccccc1)NC(=O)[C@@H](NC(=O)CNC(=O)[C@H](CCC(=O)O)NC(=O)C(C)(C)NC(=O)[C@@H](N)Cc1ccc(O)cc1)[C@@H](C)O)[C@@H](C)O)[C@@H](C)CC)C(=O)N[C@@H](C)C(=O)N[C@@H](CCC(N)=O)C(=O)NC(C)(C)C(=O)N[C@@H](CCCCNC(=O)COCCOCCNC(=O)COCCOCCNC(=O)CC[C@H](NC(=O)CCCCCCCCCCCCCCCCCCC(=O)O)C(=O)O)C(=O)N[C@@H](Cc1ccccc1)C(=O)N[C@H](C(=O)N[C@@H](CCC(=O)O)C(=O)N[C@@H](Cc1ccc(O)cc1)C(=O)N[C@@H](CC(C)C)C(=O)N[C@H](C(=O)N[C@@H](CCC(=O)O)C(=O)NCC(=O)NCC(=O)N1CCC[C@H]1C(=O)N[C@@H](CO)C(=O)N[C@@H](CO)C(=O)NCC(=O)N[C@@H](C)C(=O)N1CCC[C@H]1C(=O)N1CCC[C@H]1C(=O)N1CCC[C@H]1C(=O)N[C@@H](CO)C(N)=O)[C@@H](C)CC)[C@@H](C)CC) [Example 32] | 0.0205 nM | 3.96 nM | 44.7 nM
Y[Aib]EGTFTSDYSILLDKIAK([AEEA-AEEA-γGlu-C20 diacid])[Aib]AFIEYLIEGGPSSGAPPPS-NH2 (N-terminus assumed; SMILES CC[C@H](C)[C@H](NC(=O)[C@H](CCCCN)NC(=O)[C@H](CC(=O)O)NC(=O)[C@H](CC(C)C)NC(=O)[C@H](CC(C)C)NC(=O)[C@@H](NC(=O)[C@H](CO)NC(=O)[C@H](Cc1ccc(O)cc1)NC(=O)[C@H](CC(=O)O)NC(=O)[C@H](CO)NC(=O)[C@@H](NC(=O)[C@H](Cc1ccccc1)NC(=O)[C@@H](NC(=O)CNC(=O)[C@H](CCC(=O)O)NC(=O)C(C)(C)NC(=O)[C@@H](N)Cc1ccc(O)cc1)[C@@H](C)O)[C@@H](C)O)[C@@H](C)CC)C(=O)N[C@@H](C)C(=O)N[C@@H](CCCCNC(=O)COCCOCCNC(=O)COCCOCCNC(=O)CC[C@H](NC(=O)CCCCCCCCCCCCCCCCCCC(=O)O)C(=O)O)C(=O)NC(C)(C)C(=O)N[C@@H](C)C(=O)N[C@@H](Cc1ccccc1)C(=O)N[C@H](C(=O)N[C@@H](CCC(=O)O)C(=O)N[C@@H](Cc1ccc(O)cc1)C(=O)N[C@@H](CC(C)C)C(=O)N[C@H](C(=O)N[C@@H](CCC(=O)O)C(=O)NCC(=O)NCC(=O)N1CCC[C@H]1C(=O)N[C@@H](CO)C(=O)N[C@@H](CO)C(=O)NCC(=O)N[C@@H](C)C(=O)N1CCC[C@H]1C(=O)N1CCC[C@H]1C(=O)N1CCC[C@H]1C(=O)N[C@@H](CO)C(N)=O)[C@@H](C)CC)[C@@H](C)CC) [Example 31] | 0.0275 nM | 6.58 nM | 290 nM
Y[Aib]EGTFTSDYSK([AEEA-AEEA-γGlu-C20 diacid])LLDKIAQ[Aib]AFIEYLIEGGPSSGAPPPS-NH2 (N-terminus assumed; SMILES CC[C@H](C)[C@H](NC(=O)[C@H](CCCCN)NC(=O)[C@H](CC(=O)O)NC(=O)[C@H](CC(C)C)NC(=O)[C@H](CC(C)C)NC(=O)[C@H](CCCCNC(=O)COCCOCCNC(=O)COCCOCCNC(=O)CC[C@H](NC(=O)CCCCCCCCCCCCCCCCCCC(=O)O)C(=O)O)NC(=O)[C@H](CO)NC(=O)[C@H](Cc1ccc(O)cc1)NC(=O)[C@H](CC(=O)O)NC(=O)[C@H](CO)NC(=O)[C@@H](NC(=O)[C@H](Cc1ccccc1)NC(=O)[C@@H](NC(=O)CNC(=O)[C@H](CCC(=O)O)NC(=O)C(C)(C)NC(=O)[C@@H](N)Cc1ccc(O)cc1)[C@@H](C)O)[C@@H](C)O)C(=O)N[C@@H](C)C(=O)N[C@@H](CCC(N)=O)C(=O)NC(C)(C)C(=O)N[C@@H](C)C(=O)N[C@@H](Cc1ccccc1)C(=O)N[C@H](C(=O)N[C@@H](CCC(=O)O)C(=O)N[C@@H](Cc1ccc(O)cc1)C(=O)N[C@@H](CC(C)C)C(=O)N[C@H](C(=O)N[C@@H](CCC(=O)O)C(=O)NCC(=O)NCC(=O)N1CCC[C@H]1C(=O)N[C@@H](CO)C(=O)N[C@@H](CO)C(=O)NCC(=O)N[C@@H](C)C(=O)N1CCC[C@H]1C(=O)N1CCC[C@H]1C(=O)N1CCC[C@H]1C(=O)N[C@@H](CO)C(N)=O)[C@@H](C)CC)[C@@H](C)CC) [Example 25] | 0.179 nM | 4.8 nM | 81.1 nM
Y[Aib]EGTFTSDYSILK([AEEA-AEEA-γGlu-C20 diacid])DKIAQ[Aib]AFIEYLIEGGPSSGAPPPS-NH2 (N-terminus assumed; SMILES CC[C@H](C)[C@H](NC(=O)[C@H](CCCCN)NC(=O)[C@H](CC(=O)O)NC(=O)[C@H](CCCCNC(=O)COCCOCCNC(=O)COCCOCCNC(=O)CC[C@H](NC(=O)CCCCCCCCCCCCCCCCCCC(=O)O)C(=O)O)NC(=O)[C@H](CC(C)C)NC(=O)[C@@H](NC(=O)[C@H](CO)NC(=O)[C@H](Cc1ccc(O)cc1)NC(=O)[C@H](CC(=O)O)NC(=O)[C@H](CO)NC(=O)[C@@H](NC(=O)[C@H](Cc1ccccc1)NC(=O)[C@@H](NC(=O)CNC(=O)[C@H](CCC(=O)O)NC(=O)C(C)(C)NC(=O)[C@@H](N)Cc1ccc(O)cc1)[C@@H](C)O)[C@@H](C)O)[C@@H](C)CC)C(=O)N[C@@H](C)C(=O)N[C@@H](CCC(N)=O)C(=O)NC(C)(C)C(=O)N[C@@H](C)C(=O)N[C@@H](Cc1ccccc1)C(=O)N[C@H](C(=O)N[C@@H](CCC(=O)O)C(=O)N[C@@H](Cc1ccc(O)cc1)C(=O)N[C@@H](CC(C)C)C(=O)N[C@H](C(=O)N[C@@H](CCC(=O)O)C(=O)NCC(=O)NCC(=O)N1CCC[C@H]1C(=O)N[C@@H](CO)C(=O)N[C@@H](CO)C(=O)NCC(=O)N[C@@H](C)C(=O)N1CCC[C@H]1C(=O)N1CCC[C@H]1C(=O)N1CCC[C@H]1C(=O)N[C@@H](CO)C(N)=O)[C@@H](C)CC)[C@@H](C)CC) [Example 27] | 0.103 nM | 3.68 nM | 315 nM
